From US20240116985A1, “STAPLED PEPTIDES AND METHODS THEREOF” (priority 2020, published 2024)
Starred links: 1 amine or outer side, 2 acyl side, 3 side chain; linkers in the order of their positions; H or OH if unused. Positions of bridges follow the written chain, without caps; N, C: chain ends. Non-standard residues stand in square brackets, D forms with d. Primed or numbered codes have the meaning given here. PyrS2″ = (S)-3-amino-1-((pent-4-en-1-yloxy)carbonyl)pyrrolidine-3-carboxylic acid (stapling residue), C=CCCCOC(=O)N1CC[C@@](N[*:1])(C(=O)[*:2])C1; B5(4) = 2,2-bis(4-pentenyl)glycine = 2-amino-2-(pent-4-en-1-yl)hept-6-enoic acid (stitching residue), C=CCCCC(CCCC=C)(N[*:1])C(=O)[*:2]; B5(5) = 2,2-bis(4-pentenyl)glycine, 2-amino-2-(pent-4-en-1-yl)hept-6-enoic acid (stitching residue), C=CCCCC(CCCC=C)(N[*:1])C(=O)[*:2]; PyrS2 = (S)-3-amino-1-((pent-4-en-1-yloxy)carbonyl)pyrrolidine-3-carboxylic acid, C=CCCCOC(=O)N1CC[C@@](N[*:1])(C(=O)[*:2])C1; B5(3) = 2,2-bis(4-pentenyl)glycine (stitching residue), C=CCCCC(CCCC=C)(N[*:1])C(=O)[*:2]; Phe(3-COOH) = N[C@@H](Cc1cccc(C(=O)O)c1)C(=O)O; Phe(2-CF3) = N[C@@H](Cc1ccccc1C(F)(F)F)C(=O)O; Phe(2-Cl) = N[C@@H](Cc1ccccc1Cl)C(=O)O; Bta = N[C@@H](Cc1csc2ccccc12)C(=O)O; αAllylPro = C=CC[C@@]1(C(=O)O)CCCN1; tBuAla = CC(C)(C)C[C@H](N)C(=O)O; 3Thi = N[C@@H](Cc1ccsc1)C(=O)O; Ac5c = NC1(C(=O)O)CCCC1; Aib = CC(C)(N)C(=O)O

molecular target: Bcat-Halo (UniProt P35222); assay: NanoBRET Abs IC50, HEK293 cells; Bcat-Halo / TCF4-Luc engagement
Sequence (P35222 whole entry): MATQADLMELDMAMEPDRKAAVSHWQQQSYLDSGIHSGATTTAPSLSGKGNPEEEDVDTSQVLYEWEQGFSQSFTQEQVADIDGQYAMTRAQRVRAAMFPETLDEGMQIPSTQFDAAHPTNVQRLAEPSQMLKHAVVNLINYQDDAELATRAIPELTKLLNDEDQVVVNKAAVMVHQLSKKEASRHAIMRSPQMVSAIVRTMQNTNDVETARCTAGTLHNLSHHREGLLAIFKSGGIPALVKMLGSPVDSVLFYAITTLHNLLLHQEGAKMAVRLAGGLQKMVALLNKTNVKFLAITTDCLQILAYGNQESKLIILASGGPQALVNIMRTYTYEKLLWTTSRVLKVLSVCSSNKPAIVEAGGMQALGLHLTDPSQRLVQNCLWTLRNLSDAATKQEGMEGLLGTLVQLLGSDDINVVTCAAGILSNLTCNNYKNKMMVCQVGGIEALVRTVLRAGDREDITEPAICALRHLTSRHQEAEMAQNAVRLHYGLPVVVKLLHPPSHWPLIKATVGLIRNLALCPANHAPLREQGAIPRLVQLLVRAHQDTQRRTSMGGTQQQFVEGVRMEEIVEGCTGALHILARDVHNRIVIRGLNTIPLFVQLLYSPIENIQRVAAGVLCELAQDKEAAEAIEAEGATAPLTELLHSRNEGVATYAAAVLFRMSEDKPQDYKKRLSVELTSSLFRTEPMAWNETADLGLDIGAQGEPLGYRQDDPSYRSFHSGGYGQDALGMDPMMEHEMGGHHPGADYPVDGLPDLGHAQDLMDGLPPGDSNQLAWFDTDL

Row | Binder | IC50 [nM]
1 | Ac-[αAllylPro]D[tBuAla][B5(5)]D[Phe(3-COOH)]AAFL[PyrS2″][Phe(2-CF3)][Bta]QLF-NH2 (staple 1-4, 4-11) [I-2381] | 2100
2 | Ac-[αAllylPro]D[tBuAla][B5(5)]D[Phe(3-COOH)]AAFL[PyrS2][Phe(2-CF3)][Bta]QLY-NH2 (staple 1-4, 4-11) [I-2392] | 8600
3 | Ac-[αAllylPro]D[tBuAla][B5(5)]D[Phe(3-COOH)]AAFL[PyrS2″][Phe(2-CF3)][Bta]QL[Aib]-NH2 (staple 1-4, 4-11) [I-2386] | 2800
4 | Ac-[αAllylPro]D[tBuAla][B5(5)]D[Phe(3-COOH)]AAFL[PyrS2″][Phe(2-CF3)][Bta]QL[Ac5c]-NH2 (staple 1-4, 4-11) [I-2387] | 7100

molecular target: full-length beta-Catenin (Uniprot ID P35222) (Homo sapiens (Human)) (UniProt P35222); assay: cell-based or functional assay
Sequence (P35222 2-781 limits assumed): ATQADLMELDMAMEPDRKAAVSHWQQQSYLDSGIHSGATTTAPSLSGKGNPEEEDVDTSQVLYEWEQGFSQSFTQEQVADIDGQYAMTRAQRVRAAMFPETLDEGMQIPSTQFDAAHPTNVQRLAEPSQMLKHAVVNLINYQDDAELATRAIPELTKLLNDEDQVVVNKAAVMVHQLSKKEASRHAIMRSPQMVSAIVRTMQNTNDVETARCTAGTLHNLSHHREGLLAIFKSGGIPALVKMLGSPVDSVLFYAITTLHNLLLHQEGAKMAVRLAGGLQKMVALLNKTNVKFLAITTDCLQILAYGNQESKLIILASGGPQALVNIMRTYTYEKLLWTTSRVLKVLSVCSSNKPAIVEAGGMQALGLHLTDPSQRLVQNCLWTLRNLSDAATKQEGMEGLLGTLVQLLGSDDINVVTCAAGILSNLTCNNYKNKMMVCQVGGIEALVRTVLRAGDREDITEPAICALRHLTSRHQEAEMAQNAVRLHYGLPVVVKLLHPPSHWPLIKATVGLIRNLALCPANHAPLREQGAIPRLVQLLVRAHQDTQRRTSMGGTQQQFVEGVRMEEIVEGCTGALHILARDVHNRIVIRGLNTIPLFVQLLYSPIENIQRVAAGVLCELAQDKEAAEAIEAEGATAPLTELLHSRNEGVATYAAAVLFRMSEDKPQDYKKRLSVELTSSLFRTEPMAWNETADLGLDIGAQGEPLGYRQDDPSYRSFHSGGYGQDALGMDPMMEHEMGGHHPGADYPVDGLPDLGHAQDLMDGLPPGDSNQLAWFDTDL

Row | Binder | DLD1 4% Abs IC50 [nM]
5 | Ac-[αAllylPro]D[tBuAla][B5(5)]D[Phe(3-COOH)]AAFL[PyrS2″][Phe(2-CF3)][Bta]QLF-NH2 (staple 1-4, 4-11) [I-2381] | 1100
6 | Ac-[αAllylPro]D[tBuAla][B5(5)]D[Phe(3-COOH)]AAFL[PyrS2″][Phe(2-CF3)][Bta]QL[Aib]-NH2 (staple 1-4, 4-11) [I-2386] | 700
7 | Ac-[αAllylPro]D[tBuAla][B5(5)]D[Phe(3-COOH)]AAFL[PyrS2″][Phe(2-CF3)][Bta]QL[Ac5c]-NH2 (staple 1-4, 4-11) [I-2387] | 1500

molecular target: full-length beta-Catenin (Uniprot ID P35222) (Homo sapiens (Human)) (UniProt P35222); assay: fluorescence polarization competition; 10 nM full-length beta-catenin with 10 nM 5FAM-TCF4(10-53) probe as competitor

Row | Binder | IC50 [nM]
8 | Ac-[αAllylPro]D[tBuAla][B5(4)]DDAAFF[PyrS2″][3Thi][Bta]H-NH2 (staple 1-4, 4-11) [I-808] | 5

molecular target: full-length beta-Catenin (Uniprot ID P35222) (Homo sapiens (Human)) (UniProt P35222); assay: fluorescence polarization competition, peptide titrated against full-length beta-catenin + 5FAM-TCF4(10-53)

Row | Binder | EC50 [nM]
9 | Ac-[αAllylPro]D[tBuAla][B5(4)]DDAAFF[PyrS2″][3Thi][Bta]H-NH2 (staple 1-4, 4-11) [I-808] | 5

molecular target: full-length beta-Catenin (Uniprot ID P35222) (Homo sapiens (Human)) (UniProt P35222); assay: fluorescence polarization competition; full-length beta-catenin, competitor 5FAM-TCF4(10-53)

Row | Binder | IC50 [nM]
10 | Ac-[αAllylPro]D[tBuAla][B5(5)]D[Phe(3-COOH)]AAFL[PyrS2″][Phe(2-CF3)][Bta]QLF-NH2 (staple 1-4, 4-11) [I-2381] | 1470
11 | Ac-[αAllylPro]D[tBuAla][B5(5)]D[Phe(3-COOH)]AAFL[PyrS2][Phe(2-CF3)][Bta]QLY-NH2 (staple 1-4, 4-11) [I-2392] | 462
12 | Ac-[αAllylPro]D[tBuAla][B5(5)]D[Phe(3-COOH)]AAFL[PyrS2″][Phe(2-CF3)][Bta]QL[Aib]-NH2 (staple 1-4, 4-11) [I-2386] | 75.5
13 | Ac-[αAllylPro]D[tBuAla][B5(5)]D[Phe(3-COOH)]AAFL[PyrS2″][Phe(2-CF3)][Bta]QL[Ac5c]-NH2 (staple 1-4, 4-11) [I-2387] | 120

molecular target: full-length beta-Catenin (Uniprot ID P35222) (Homo sapiens (Human)) (UniProt P35222); assay: fluorescence polarization competition against 5FAM-TCF4 (10-53) on full-length beta-catenin

Row | Binder | IC50 [nM]
14 | Ac-[αAllylPro]D[tBuAla][B5(3)]D[Phe(3-COOH)]AAFL[PyrS2″][Phe(2-Cl)][Bta]NAA[dA]-NH2 (staple 1-4, 4-11) [I-2041] | 16
15 | Ac-[αAllylPro]D[tBuAla][B5(3)]D[Phe(3-COOH)]AAFL[PyrS2″][Phe(2-Cl)][Bta]NAAA-NH2 (staple 1-4, 4-11) [I-2040] | 24
16 | Ac-[αAllylPro]D[tBuAla][B5(3)]D[Phe(3-COOH)]AAFA[PyrS2″][Phe(2-Cl)][Bta]N-NH2 (staple 1-4, 4-11; also: staple isomer, earlier eluting HPLC peak) [I-2035] | 16
17 | Ac-[αAllylPro]D[tBuAla][B5(3)]D[Phe(3-COOH)]AAFA[PyrS2″][3Thi][Bta]N-NH2 (staple 1-4, 4-11) [I-2042] | 9
18 | Ac-[αAllylPro]D[tBuAla][B5(3)]D[Phe(3-COOH)]AAFA[PyrS2″][Phe(2-Cl)][Bta]N-NH2 (staple 1-4, 4-11) [I-2036] | 19
19 | Ac-[αAllylPro]D[tBuAla][B5(3)]D[Phe(3-COOH)]SAFL[PyrS2″][3Thi][Bta]A-NH2 (staple 1-4, 4-11) [I-2050] | 9
20 | Ac-[αAllylPro]D[tBuAla][B5(3)]D[Phe(3-COOH)]AAFL[PyrS2″][3Thi][Bta]N-NH2 (staple 1-4, 4-11) [I-2043] | 8
21 | Ac-[αAllylPro]D[tBuAla][B5(3)]D[Phe(3-COOH)]AAFF[PyrS2″][3Thi][Bta]N-NH2 (staple 1-4, 4-11) [I-2044] | 9
22 | Ac-[αAllylPro]D[tBuAla][B5(3)]D[Phe(3-COOH)]AAFF[PyrS2″][Phe(2-Cl)][Bta]N-NH2 (staple 1-4, 4-11) [I-2037] | 17
23 | Ac-[αAllylPro]D[tBuAla][B5(3)]D[Phe(3-COOH)]AAFS[PyrS2″][3Thi][Bta]N-NH2 (staple 1-4, 4-11) [I-2045] | 5
24 | Ac-[αAllylPro]D[tBuAla][B5(3)]D[Phe(3-COOH)]AAFN[PyrS2″][Phe(2-Cl)][Bta]F-NH2 (staple 1-4, 4-11) [I-2033] | 30
